Reference: paper PMC5553292

Biological target: Recombinant human PDK2 (pyruvate dehydrogenase kinase 2) (human)
Experiment: dynamic light scattering

How did the stoichiometry N turn out when “Recombinant human PDK2 (pyruvate dehydrogenase kinase 2) (enzyme)” was run?
The stoichiometry N was 2.
